This series in a line: yeast display, Sf9 membrane polyspecificity reagent, FACS + sequencing; frameworks hold sequencing errors. The method in brief:
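Sorting gates, low and high (top ~1%), were placed on anti-HA fluorescence to track expression and on streptavidin fluorescence to track reagent binding. A clone's polyreactivity label is taken from the gate it came out of. The reagent was 10% biotinylated, detergent-solubilized Sf9 membrane, applied for 1 hour at 4 °C to galactose-induced yeast display cells.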
Consider “QVQLVESGGGLVQAGGSLRLSCAASGRIFAYNTMGWYRQAPGKERELVAGITSGGSTNYADSVKGRFTISRDNAKNTVYLQMNSLQPEDTAVYYCAAVGRWGVTGSHHDAYDYWGQGTQVTVSS”, for which the “polyreactivity (PSR sort gate)” value is on record as “high polyreactivity”.
Under “QVQLVESGGGLVQAGGSLRLSCAASGRIFAYYAKGWYRQAPGKERELVAAISRSGVSTYYADSVKGRFTISRDNAKNTVYLQMNSLKPEDTAVYYCAARWRSGFTSGDYWGQGTQVTVSS” stands “low polyreactivity”; under “QVQLVESGGGLVQAGGSLRLSCAASGRIFCSYTMGWYRQAPGKERELVAAISWRGGSTYYADSVKGRFTISRDNAKNTVYLQMNSLKPEDTAVYYCAADSRSPPGDYWGQGTQVTVSS”, “low polyreactivity”.
Under “QVQLVESGGGLVQAGGSLRLSCAASGRIFCVNAMGWYRQAPGKERELVAAINVSGGITYYADSVKGRFTISRDNAKNTVYLQMKSLKPEDTAVYYCAAVHWTWYTYYGPDYDYWGQGTQVTVSS” stands “low polyreactivity”; under “QVQLVESGGGLVQAGGSLRLSCAASGRIFDAYAMGWYRQAPGKERELLAAITQSGGSTFYADSVKGRFTISRDNAKNTVYLQMNSLKPEDTAVYYCAKDKFWFRVDGHYRMDYWGQGTQVTVSS”, “low polyreactivity”.
The same measure for “QVQLVESGGGLVQAGGSLRLSCAASGRIFDCYAMGWDRQAPGKERELVAAIRASGGRTYYADSVKGRFTISRDNAKNTVYLQMNSLKPEDTAVYYCAADSVKYGGDYGGQGTQVTVSS”: “high polyreactivity”; for “QVQLVESGGGLVQAGGSLRLSCAASGRIFDDNTMGWSRQAPGKERELVAAISSGTSTYYADSVKGRFTISRDNAKNTVYLQMNSLKPEDTAVYYCAAVIKWTKDDYWGQGTQVTVSS”: “high polyreactivity”.
Consider “QVQLVESGGGLVQAGGSLRLSCAASGRIFDDYAMGWYRPAPGKERELVAAISSSGGSTYYADSLKGRFTISRDNAKNTVYLQINSLKPEDTAVYFCAASSFRSYYSGKYDYWGQGTQVTVSS”, for which the “polyreactivity (PSR sort gate)” value is given as “high polyreactivity”.
Turning to “QVQLVESGGGLVQAGGSLRLSCAASGRIFDENAMGWYRQAPGKERELVATISSSGVSTSYADSVKGRFTISRDNAKNTVYLQMNSLKPEDTAVYYCNAGYRRRYKFDYWGQGTQVTVSS”, the “polyreactivity (PSR sort gate)” value is reported as “low polyreactivity”.
Under “QVQLVESGGGLVQAGGSLRLSCAASGRIFDENAMGWYRQAPGKERELVATISSSGVSTSYADSVKGRFTISRDNAKNTVYLQMNSLKPEDTAVYYCNAGYRRRYKFVYWGQGTQVTVSS” stands “low polyreactivity”; under “QVQLVESGGGLVQAGGSLRLSCAASGRIFDGNAMGWYRQAPGKERELVAAISWTGGSTYYADSVKGRFTISRDNAKNTVYLQMNSLKPEDTAVYYCAADSGWWLDQWSWYDYWGQGTQVTVSS”, “low polyreactivity”; under “QVQLVESGGGLVQAGGSLRLSCAASGRIFDGNTMGWYRQAPGKERELVAAISGGGSTDYADSVKGRFTISRDNAKNTVYLQMNSLKPEDTAVYYCAATTGPVPLKGDYWGQGTQVTVSS”, “low polyreactivity”.
The same measure for “QVQLVESGGGLVQAGGSLRLSCAASGRIFDGYDMGGYRQAPGQEREWVAAITSVGSTNYADSVKGRFTISRDNAKNTVYLQMNSLKPDDTAVYYCAAVLYVFYDDYGYWEYFSQYDYWGQGTQVTVSS”: “low polyreactivity”; for “QVQLVESGGGLVQAGGSLRLSCAASGRIFDKYTMGWYRQAPGKERELVATMTRGGVSTYYADSVKGRFTISRDNAKNTVYLQMNSLKPEDTAVYYCNAVWRLRVRYGYWGQGTHVTVSS”: “high polyreactivity”; for “QVQLVESGGGLVQAGGSLRLSCAASGRIFDKYTMGWYRQAPWKERELVPAISKSGSGTFYADSVKGRFTISRDNAKNTVYLQMNSLKPEDTAVYYCARVYTVGSGRSWRLDYWGQGTQVTVSS”: “high polyreactivity”.
The same measure for “QVQLVESGGGLVQAGGSLRLSCAASGRIFDLNAMGWYRPAPGKERELVAAITNTGSTNYADSVKGRFTISRDNAKNTVYLQMNSLKPEDTAVYYCARTYWLRYYGYRDDEYDYWGQGTQVTVSS”: “low polyreactivity”.
Consider “QVQLVESGGGLVQAGGSLRLSCAASGRIFDLNAMGWYRQAPGKERELVAAITFSGGDTYADSVKGRFTISRDNAKNTVYLEMYSLKPEDTAVYYCAKDHYGDDTYGTPYDYDYWGQGTQVTVSS”, for which the “polyreactivity (PSR sort gate)” value was “low polyreactivity”.
As to “QVQLVESGGGLVQAGGSLRLSCAASGRIFDLNAMGWYRQAPGKERELVADINSGGSTYYADSVKGRFTISRDNAKNTVYLQMNSLKPEDTAVYYCAVRRNQHVVQMYYWGQGTQVTVSS”, the “polyreactivity (PSR sort gate)” value is given as “low polyreactivity”.
The same measure for “QVQLVESGGGLVQAGGSLRLSCAASGRIFDLNVMGWYRQAPGKERELVAAIRSGGRTNYADSVKGRFTISRDNAKNTVYLQMNSLKPEDTAVYYCNVRRGYWHPRYGWANYDYWGQGTQVTVSS”: “high polyreactivity”; for “QVQLVESGGGLVQAGGSLRLSCAASGRIFDLYAMGWYRQAPGKERELVATISGSGGSTYYADSVKGRFTISRDNAKNTVYLQMNSLKPEDTAVFYCAAVSVSSWYDYWGLGTQVTVSS”: “low polyreactivity”; for “QVQLVESGGGLVQAGGSLRLSCAASGRIFDLYTMGWYRQAPGKERELVAAIRWSDGSTYYADSVKGRFTISRDNAKNTVYLQMNSLKPEDTAVYYCAADSRTSYYNDDYDYWGQGTQVTVSS”: “low polyreactivity”.
The same measure for “QVQLVESGGGLVQAGGSLRLSCAASGRIFDLYTMGWYRQAPGKERELVAAIRWSDGSTYYADSVKGRFTISRDNAKNTVYLQMNSLKPEDTAVYYCNRDPPRVLWYYLLSDSKLDSWGQGTQVTVSS”: “low polyreactivity”; for “QVQLVESGGGLVQAGGSLRLSCAASGRIFDNNAMGWYRQAPGKERELVAAIDWRGGSTDYADSVKGRFTISRDNAKNNVYLHMNSLKQEDTAVYYCVAGHVRYWHGYSYDYWGQGTQVTVSS”: “low polyreactivity”.
Under “QVQLVESGGGLVQAGGSLRLSCAASGRIFDPYAMGWYRQAPGKERELVASISWSGGRTYYADSVKGRFTISRDNAKNTVYLQMNSLKPEDTAVYYCARDYGQYGWYRYGRTYDHWGQGTQVTVSS” stands “high polyreactivity”; under “QVQLVESGGGLVQAGGSLRLSCAASGRIFDQYALGWYRQAPRKESELVAFINRGGSTNYADSVKGRFTISRDNAKNTVYLQMNSLKPEDTEVYYCAADGDYYVESQTGHTYYYWGQGTQVTVSS”, “low polyreactivity”.
For “QVQLVESGGGLVQAGGSLRLSCAASGRIFDQYTMGWYRQAPGKERELVAAIRWSDGSTYYADSVKGRFTISRDNAKNTVYLQMNSLKPEDTAVYYCAADTRTSYYNDDYDYWGQGTQVTVSS”, the “polyreactivity (PSR sort gate)” value is listed as “low polyreactivity”.
The same measure for “QVQLVESGGGLVQAGGSLRLSCAASGRIFDRNAMGWYRQAPGKERELVAAISSRGTSTYYADSVKGRFTISRDNAKNTVYLQMNSLKPEDTAVYYCAARPRYASDEFGYWGQGTQVTVSS”: “low polyreactivity”; for “QVQLVESGGGLVQAGGSLRLSCAASGRIFDRNAMGWYRQAPGKERELVARIDPGDDTNYADSVKGRFTISRDNAKNTVYLQMNSLKAEDTAVYYCATDPDYVLYRTAYYEYDYWGQGTQVTVSS”: “low polyreactivity”.
Under “QVQLVESGGGLVQAGGSLRLSCAASGRIFDSYAMGWYRQAPGKERELVAVISNNDGTTYYADSVKGRFTISRDNAKTTVYLQMNSLKPEDTAVYYCNAVYSSGVDGSEGFDYWGQGTQVTVSS” stands “low polyreactivity”; under “QVQLVESGGGLVQAGGSLRLSCAASGRIFDTNAMGWYRQAPGKERELVAAITYSGGSTYYADSVKGRFTISRDNAKNTVYLQMNSLKPEDTAVYYCAAGPYDPRYDYWGQGTQVTVSS”, “high polyreactivity”.

(Values after the nanobody polyreactivity screen of Harvey et al. (2022).)
